Test results: publication PMC5032119

Target: Ku70-HisTag (mouse) (UniProt P23475)
Assay: fluorescence polarisation; FIDA-PO on an MF20 (Olympus) single molecule fluorescence spectroscopy; 5 nM fluorescent Ku70-HisTag in solution, 500 nM GST-HttExon1-110Q added; 40 ul per well, 384-well glass-bottom plate, PBS with 0.01% Tween 20 and 1% DMSO, room temperature

Chain of GST-HttExon1-110Q (P42858 whole entry, change not shown): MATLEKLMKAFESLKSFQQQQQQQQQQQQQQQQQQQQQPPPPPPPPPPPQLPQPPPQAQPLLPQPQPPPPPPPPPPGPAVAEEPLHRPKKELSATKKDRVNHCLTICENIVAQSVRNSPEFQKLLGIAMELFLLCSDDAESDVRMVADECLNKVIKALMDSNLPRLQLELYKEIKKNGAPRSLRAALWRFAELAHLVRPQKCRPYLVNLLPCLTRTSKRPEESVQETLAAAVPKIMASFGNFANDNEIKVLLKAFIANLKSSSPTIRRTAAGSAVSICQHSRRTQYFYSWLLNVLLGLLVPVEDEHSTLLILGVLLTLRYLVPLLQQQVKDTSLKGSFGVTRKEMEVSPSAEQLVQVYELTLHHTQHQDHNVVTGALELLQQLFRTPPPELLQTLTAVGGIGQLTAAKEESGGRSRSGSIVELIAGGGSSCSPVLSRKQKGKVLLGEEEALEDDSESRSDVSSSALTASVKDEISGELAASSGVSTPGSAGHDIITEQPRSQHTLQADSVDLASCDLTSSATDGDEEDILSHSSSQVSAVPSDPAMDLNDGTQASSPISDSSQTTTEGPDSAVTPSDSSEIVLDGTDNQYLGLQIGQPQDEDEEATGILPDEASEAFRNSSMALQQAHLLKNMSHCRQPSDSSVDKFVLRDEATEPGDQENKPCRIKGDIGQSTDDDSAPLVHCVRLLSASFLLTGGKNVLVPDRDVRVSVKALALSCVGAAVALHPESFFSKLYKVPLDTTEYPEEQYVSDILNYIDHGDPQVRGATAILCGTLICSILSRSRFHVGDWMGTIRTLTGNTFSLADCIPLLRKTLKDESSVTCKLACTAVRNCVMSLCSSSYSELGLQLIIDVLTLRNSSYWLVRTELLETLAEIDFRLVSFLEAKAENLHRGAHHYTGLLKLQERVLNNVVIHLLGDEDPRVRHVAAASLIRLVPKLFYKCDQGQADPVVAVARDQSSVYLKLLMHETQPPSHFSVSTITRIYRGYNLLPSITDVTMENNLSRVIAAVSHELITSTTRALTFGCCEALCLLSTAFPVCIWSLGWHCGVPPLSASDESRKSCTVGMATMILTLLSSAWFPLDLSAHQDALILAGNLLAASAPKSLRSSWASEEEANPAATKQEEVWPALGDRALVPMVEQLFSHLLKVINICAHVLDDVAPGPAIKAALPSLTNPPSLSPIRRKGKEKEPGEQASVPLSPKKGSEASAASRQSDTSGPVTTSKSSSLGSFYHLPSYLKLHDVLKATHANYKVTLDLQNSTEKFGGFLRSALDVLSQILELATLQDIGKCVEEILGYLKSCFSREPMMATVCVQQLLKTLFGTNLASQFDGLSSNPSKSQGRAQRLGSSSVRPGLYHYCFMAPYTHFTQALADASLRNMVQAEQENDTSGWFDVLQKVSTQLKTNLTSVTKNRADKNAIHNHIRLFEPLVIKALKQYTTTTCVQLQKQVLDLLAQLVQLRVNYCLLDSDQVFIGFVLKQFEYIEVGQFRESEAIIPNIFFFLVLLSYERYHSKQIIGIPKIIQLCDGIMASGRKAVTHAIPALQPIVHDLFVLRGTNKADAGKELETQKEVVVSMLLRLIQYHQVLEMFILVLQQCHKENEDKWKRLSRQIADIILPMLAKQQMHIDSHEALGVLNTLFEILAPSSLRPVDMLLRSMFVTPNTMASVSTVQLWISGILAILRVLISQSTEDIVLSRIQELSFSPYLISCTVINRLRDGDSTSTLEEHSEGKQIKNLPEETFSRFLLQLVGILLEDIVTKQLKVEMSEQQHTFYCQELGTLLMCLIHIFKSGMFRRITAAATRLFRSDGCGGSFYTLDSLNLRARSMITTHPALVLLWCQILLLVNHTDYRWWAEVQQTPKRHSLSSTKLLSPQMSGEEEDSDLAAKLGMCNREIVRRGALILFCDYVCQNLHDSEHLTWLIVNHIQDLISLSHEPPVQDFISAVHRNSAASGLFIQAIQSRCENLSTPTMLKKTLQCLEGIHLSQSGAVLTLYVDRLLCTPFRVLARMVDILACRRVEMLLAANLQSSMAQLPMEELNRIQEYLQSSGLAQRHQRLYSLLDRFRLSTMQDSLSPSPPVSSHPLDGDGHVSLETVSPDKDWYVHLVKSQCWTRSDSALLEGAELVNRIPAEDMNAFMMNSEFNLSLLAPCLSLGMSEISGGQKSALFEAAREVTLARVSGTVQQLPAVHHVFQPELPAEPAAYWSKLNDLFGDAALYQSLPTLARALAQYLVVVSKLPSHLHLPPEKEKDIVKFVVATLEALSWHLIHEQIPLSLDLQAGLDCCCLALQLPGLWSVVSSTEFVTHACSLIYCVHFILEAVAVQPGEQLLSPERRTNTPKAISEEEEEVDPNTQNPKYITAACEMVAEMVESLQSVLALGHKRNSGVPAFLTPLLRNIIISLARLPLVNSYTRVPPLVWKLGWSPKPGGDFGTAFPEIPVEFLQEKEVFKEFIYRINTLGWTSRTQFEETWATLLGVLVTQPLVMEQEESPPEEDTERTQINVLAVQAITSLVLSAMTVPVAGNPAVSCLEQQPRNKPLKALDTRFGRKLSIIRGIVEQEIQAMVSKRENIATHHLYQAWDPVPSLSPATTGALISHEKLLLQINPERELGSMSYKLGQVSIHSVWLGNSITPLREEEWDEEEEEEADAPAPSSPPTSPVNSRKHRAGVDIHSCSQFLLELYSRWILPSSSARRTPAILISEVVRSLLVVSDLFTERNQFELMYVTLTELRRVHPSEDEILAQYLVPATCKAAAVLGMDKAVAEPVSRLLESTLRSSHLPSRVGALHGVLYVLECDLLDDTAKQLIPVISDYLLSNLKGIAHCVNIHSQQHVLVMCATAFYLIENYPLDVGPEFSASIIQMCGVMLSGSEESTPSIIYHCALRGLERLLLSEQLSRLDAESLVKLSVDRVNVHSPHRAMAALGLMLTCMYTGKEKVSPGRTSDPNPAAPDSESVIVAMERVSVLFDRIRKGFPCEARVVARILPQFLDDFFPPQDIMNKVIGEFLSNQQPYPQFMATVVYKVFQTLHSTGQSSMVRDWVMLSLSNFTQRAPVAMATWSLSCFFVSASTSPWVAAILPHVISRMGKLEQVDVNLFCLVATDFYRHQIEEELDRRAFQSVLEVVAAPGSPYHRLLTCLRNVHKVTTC
Chain of UniProt P23475 (P23475 whole entry): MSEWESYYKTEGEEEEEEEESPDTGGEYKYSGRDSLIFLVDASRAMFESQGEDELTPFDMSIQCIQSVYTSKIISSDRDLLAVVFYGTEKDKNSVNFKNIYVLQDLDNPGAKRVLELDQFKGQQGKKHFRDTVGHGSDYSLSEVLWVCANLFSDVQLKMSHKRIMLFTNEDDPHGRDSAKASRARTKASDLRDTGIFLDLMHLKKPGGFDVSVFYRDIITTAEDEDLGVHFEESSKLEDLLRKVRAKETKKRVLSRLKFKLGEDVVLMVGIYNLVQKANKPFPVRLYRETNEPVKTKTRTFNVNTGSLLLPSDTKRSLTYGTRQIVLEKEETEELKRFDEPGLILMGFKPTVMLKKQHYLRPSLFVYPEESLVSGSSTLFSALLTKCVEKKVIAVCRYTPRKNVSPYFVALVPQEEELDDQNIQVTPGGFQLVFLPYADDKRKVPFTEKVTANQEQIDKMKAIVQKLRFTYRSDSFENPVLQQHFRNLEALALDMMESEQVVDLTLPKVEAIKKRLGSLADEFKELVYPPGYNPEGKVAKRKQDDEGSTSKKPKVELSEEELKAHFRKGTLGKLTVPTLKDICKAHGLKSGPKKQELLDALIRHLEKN

GST-HttExon1-110Q (domain or fragment)
fluorescence polarization score: 140
